Values belong to the binder of their own block, whether it stands above or below them.
B2: human RXRα (9-cis retinoic acid receptor), full-length, wild type (receptor, UniProt P19793 1-462, looked up)
chain: MDTKHFLPLDFSTQVNSSLTSPTGRGSMAAPSLHPSLGPGIGSPGQLHSPISTLSSPINGMGPPFSVISSPMGPHSMSVPTTPTLGFSTGSPQLSSPMNPVSSSEDIKPPLGLNGVLKVPAHPSGNMASFTKHICAICGDRSSGKHYGVYSCEGCKGFFKRTVRKDLTYTCRDNKDCLIDKRQRNRCQYCRYQKCLAMGMKREAVQEERQRGKDRNENEVESTSSANEDMPVERILEAELAVEPKTETYVEANMGLNPSSPNDPVTNICQAADKQLFTLVEWAKRIPHFSELPLDDQVILLRAGWNELLIASFSHRSIAVKDGILLATGLHVHRNSAHSAGVGAIFDRVLTELVSKMRDMQMDKTELGCLRAIVLFNPDSKGLSNPAEVEALREKVYASLEAYCKHKYPEQPGRFAKLLLRLPALRSIGLKCLEHLFFFKLIGDTPIDTFLMEMLEAPHQMT
notes: mature; also called wild-type RXR

What was measured:
[1] = biological target: GST-GRIP1 (glutathione-S-transferase fused to the three receptor interaction domains of mouse GRIP1, Arg 625 - Lys 765) (mouse) (UniProt Q61026); test: phosphorimager quantitation of the mobility shift autoradiogram (Figure 4)
[2] = biological target: GST-GRIP1 (glutathione-S-transferase fused to the three receptor interaction domains of mouse GRIP1, Arg 625 - Lys 765) (mouse) (UniProt Q61026); test: electrophoretic mobility shift, DR1 probe, 5 µg GST-GRIP1, LG268 0-1000 nM
[3] = biological target: T1, rat FXR (farnesoid X-activated receptor), full-length (rat, UniProt Q62735 1-469); test: DNA binding as heterodimer (Figure 5 and data not shown)
T1 construct: mature; in vitro translated for the mobility shift assays; also called bile acid nuclear receptor; BAR
T1 sequence (looked up): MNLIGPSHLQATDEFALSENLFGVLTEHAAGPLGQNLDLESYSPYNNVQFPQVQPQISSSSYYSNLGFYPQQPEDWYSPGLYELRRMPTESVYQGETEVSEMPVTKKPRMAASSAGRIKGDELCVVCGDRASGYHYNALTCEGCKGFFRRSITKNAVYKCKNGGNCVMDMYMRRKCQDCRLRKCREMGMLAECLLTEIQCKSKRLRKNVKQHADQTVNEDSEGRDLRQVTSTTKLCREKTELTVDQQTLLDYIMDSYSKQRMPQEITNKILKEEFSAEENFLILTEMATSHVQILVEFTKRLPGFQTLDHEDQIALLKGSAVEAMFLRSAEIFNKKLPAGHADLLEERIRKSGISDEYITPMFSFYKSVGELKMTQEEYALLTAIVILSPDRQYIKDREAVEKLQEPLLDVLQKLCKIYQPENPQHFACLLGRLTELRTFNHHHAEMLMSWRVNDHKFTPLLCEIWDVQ

[4] = biological target: T1, rat FXR (farnesoid X-activated …); test: electrophoretic mobility shift, hsp27 EcRE probe, in vitro translated FXR + RXR
[5] = biological target: B2; test: electrophoretic mobility shift, DR1 probe, increasing LG268

fold higher concentration of ligand (LG268) required for recruitment of coactivator, against wild-type RXR [1]: 100 fold
fold decrease in potency of coactivator recruitment compared to wild type RXR [2]: 100 fold
binding result [3]: binds
B1: RXRm, human RXRα with the single point mutation Asp 322→Pro in the ligand binding domain (receptor, UniProt P19793 1-462, looked up)
chain: MDTKHFLPLDFSTQVNSSLTSPTGRGSMAAPSLHPSLGPGIGSPGQLHSPISTLSSPINGMGPPFSVISSPMGPHSMSVPTTPTLGFSTGSPQLSSPMNPVSSSEDIKPPLGLNGVLKVPAHPSGNMASFTKHICAICGDRSSGKHYGVYSCEGCKGFFKRTVRKDLTYTCRDNKDCLIDKRQRNRCQYCRYQKCLAMGMKREAVQEERQRGKDRNENEVESTSSANEDMPVERILEAELAVEPKTETYVEANMGLNPSSPNDPVTNICQAADKQLFTLVEWAKRIPHFSELPLDDQVILLRAGWNELLIASFSHRSIAVKPGILLATGLHVHRNSAHSAGVGAIFDRVLTELVSKMRDMQMDKTELGCLRAIVLFNPDSKGLSNPAEVEALREKVYASLEAYCKHKYPEQPGRFAKLLLRLPALRSIGLKCLEHLFFFKLIGDTPIDTFLMEMLEAPHQMT
notes: mature; also called mutant RXR; RXR mutant

Binder: B2
binding result [4]: binds

binding result [5]: binds
B3: GST-GRIP1 (glutathione-S-transferase fused to the three receptor interaction domains of mouse GRIP1, Arg 625 - Lys 765) (other, UniProt Q61026 625-765, looked up)
chain: RAEGHSRLHDSKGQTKLLQLLTTKSDQMEPSPLPSSLSDTNKDSTGSLPGPGSTHGTSLKEKHKILHRLLQDSSSPVDLAKLTAEATGKELSQESSSTAPGSEVTVKQEPASPKKKENALLRYLLDKDDTKDIGLPEITPK
notes: range 625-765; Expressed in E. coli, purified on glutathione-sepharose; also called CoA; not shown: glutathione-S-transferase (GST)

Reference: patent EP1473042A1 (City of Hope, dated 2004)
